# Experimental data published in the supplement of paper PMC10724198.
# ± gives the standard deviation of the averaged measurements.
# System: Saccharomyces cerevisiae
# Assay: protein stability index of tFT-peptide fusion (C-terminal peptide) (PSI (0-1 scale)); higher = more stable (slower turnover)
# Conditions: genetic background: wild type; temperature: 30 C
# Description: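 Multiplexed protein stability (MPS) profiling in S. cerevisiae. Random 12-aa peptides (tFT-X12 library) are fused to the C-terminus of a sfGFP-mCherry tandem fluorescent timer, after mCherry and a GGGS linker. Cells are FACS-sorted into 8 mCherry/sfGFP bins and deep-sequenced. The protein stability index (PSI) is the read-weighted bin average, scaled from 0 (unstable) to 1 (stable). Only peptides with >10 reads are reported; cells were grown at 30 °C in SC-His with glucose.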
# 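Further: PSI is a weighted mean of sequencing reads over stability bins, variants kept only with over 10 reads, mCherry proximal and sfGFP distal, peptide attached via GGGS linker.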
row,Sequence,protein stability index
1,FPPPLHFPPLPA,0.723 ± 0.055
2,VAPPIPSKAGHL,0.753 ± 0.2
3,SGTLYELNAVVV,0.644 ± 0.016
4,LRGTEMMSTSVV,0.656 ± 0.085
5,YFLCPPTSPHRH,0.736 ± 0.13
6,GLPLPPPHPFSL,0.7793 ± 0.0021
7,SNAFWVRPFKIG,0.667 ± 0.013
8,QGSKQKIISAAT,0.6807 ± 0.0064
9,WLSLPLAHLFSP,0.681 ± 0.047
10,SPLPPPLCPPPL,0.608 ± 0.034
11,PLFLPALPPPLP,0.687 ± 0.11
12,AVGLCGARSLGG,0.634 ± 0.048
13,SASRPRRWGLAR,0.609 ± 0.007
14,RPAPPPHPLSPV,0.7 ± 0.031
15,IKMRKICLIGSM,0.603 ± 0.052
16,GSRGGVAYGRVG,0.741 ± 0.04
17,PPPPVPRPRLPI,0.648 ± 0.099
18,QAGKPAIHHAAL,0.682 ± 0.0034
19,ELRSVLDRDVRV,0.725 ± 0.049
20,SPLSPPHRHNTT,0.701 ± 0.017
21,VTGPLSSDSSFT,0.672 ± 0.017
22,LLLLPPPPPPPT,0.684 ± 0.046
23,PAWGEQYYGNVR,0.69 ± 0.057
24,VDRGGRVGERGR,0.597 ± 0.031
25,DRSTIKIAIHRQ,0.656 ± 0.056

row,Sequence,protein stability index
1,FLAPPPDVGQLV,0.692 ± 0.038
2,FGVVCIGVLGGV,0.5361 ± 0.0014
3,WYYTCSEFSIYN,0.693 ± 0.0071
4,PPPPSLPTPRPP,0.662 ± 0.012
5,GGGAGGGGVVVR,0.643 ± 0.016
6,PSPPPSISIPPS,0.73 ± 0.17
7,TKQSKRKHESRT,0.671 ± 0.044
8,PPPPAVPPSPPP,0.645 ± 0.012
9,IATPQNPRRTKA,0.714 ± 0.045
10,LHRGCSGNVPAR,0.697 ± 0.037
11,LRLSASRLLPPP,0.736 ± 0.015
12,KKRDKKKLRRVE,0.672 ± 0.044
13,TEWIRGTAVNSS,0.701 ± 0.023
14,FLSWSLPCITFR,0.571 ± 0.051
15,PPSPPPPPAHPP,0.597 ± 0.01
16,LFFLRSSSRGLW,0.736 ± 0.055
17,LPSHPHDRPPQT,0.719 ± 0.019
18,PPPSPPAQSLRS,0.759 ± 0.079
19,LPPLLLPTRPLS,0.662 ± 0.12
20,VLRFATIKRMYP,0.661 ± 0.018
21,PSPPQLPAAPSP,0.779 ± 0.086
22,SRPPLLPTPPPS,0.701 ± 0.047
23,GRPGPSSPFLLP,0.702 ± 0.052
24,IFWRGVVDVCSG,0.584 ± 0.065
25,TIELNLPPSVVR,0.642 ± 0.037

row,Sequence,protein stability index
1,PPRPDRSSLPPF,0.712 ± 0.037
2,RGRFVVGAGRED,0.67 ± 0.077
3,RSFFDRLNRSLS,0.666 ± 0.032
4,TPRPRRNCGPGP,0.717 ± 0.2
5,QPRLPLPLSSPV,0.611 ± 0.071
6,GVCGGVGGWGVA,0.698 ± 0.019
7,FSRCRRGLVLCL,0.479 ± 0.045
8,QDERPLAPRTRW,0.7251 ± 0.0032
9,EWGAGGVVVGGW,0.718 ± 0.043
10,VYSGYVFRKDGI,0.695 ± 0.024
11,PPPPSCPHSAPL,0.637 ± 0.008
12,VCPRLISPLILL,0.584 ± 0.027
13,LRPCSSLPSTPP,0.718 ± 0.049
14,PPLPPAPPPPPH,0.697 ± 0.056
15,RIIIRNIKKKTE,0.641 ± 0.023
16,IKKEENKNENQE,0.6809 ± 0.0035
17,KTKGPKSKPKRK,0.6563 ± 0.0046
18,RNKEPRSSRQNS,0.578 ± 0.009
19,GVLLWWGRRRGE,0.7224 ± 0.0048
20,FFAGELGVYCLV,0.596 ± 0.033
21,TGKWRSFQAYYY,0.667 ± 0.039
22,WHGDDSSIWQVG,0.791 ± 0.036
23,IKYEKENNINKI,0.679 ± 0.039
24,RLRRSSSNPHSP,0.656 ± 0.043
25,LSLPQPHPPLKS,0.679 ± 0.029

row,Sequence,protein stability index
1,PPPPPSSPPASP,0.653 ± 0.03
2,CPSSFSALSNSR,0.671 ± 0.049
3,SRPSSFRLRFLH,0.393 ± 0.18
4,PSPSAGPAPTPL,0.65 ± 0.084
5,FFVRCTEWLGED,0.6161 ± 0.0039
6,SSPSPALLFPAR,0.715 ± 0.036
7,RGWGWGRKVSVG,0.62 ± 0.069
8,PSPPIPALSFST,0.684 ± 0.03
9,GFSGLRGFWSGM,0.713 ± 0.04
10,SPPPPPAPHPCP,0.686 ± 0.03
11,CFPLPRPLPYME,0.654 ± 0.12
12,CSWNLLAHPPAQ,0.744 ± 0.0093
13,LVKRINKVNNRR,0.632 ± 0.1
14,VAGLQGGSGEGG,0.576 ± 0.06
15,VRRSGMNIVVLP,0.63872 ± 0.00027
16,FCLPVFCVPSHF,0.634 ± 0.11
17,TYLQYKQKMKKH,0.686 ± 0.15
18,KRAPEPPTPPAP,0.672 ± 0.015
19,HPSNMYSGDEAP,0.68 ± 0.01
20,ESLVSFTRPFSR,0.748 ± 0.026
21,AMGIPLLTTHFI,0.674 ± 0.064
22,EFPSFHDQGAYM,0.738 ± 0.062
23,SPSPPSNPLPSP,0.701 ± 0.024
24,WNRNVEILSALA,0.548 ± 0.012
25,DINNDQKCTLMK,0.71 ± 0.013

row,Sequence,protein stability index
1,SPAPQLFLPPPV,0.665 ± 0.052
2,VVGAIVILRGLR,0.632 ± 0.018
3,LPGCPPADRPLV,0.688 ± 0.13
4,KEMRCRKKKEGK,0.683 ± 0.048
5,EWLCLRGCCVLY,0.667 ± 0.015
6,PEGPTPPSLKLS,0.6162 ± 0.0052
7,DPTPLALSPDHP,0.63 ± 0.057
8,KTECMAIEKTLV,0.686 ± 0.033
9,DSSFPKSVSKQA,0.679 ± 0.024
10,PSPPLPHLLLLP,0.6929 ± 0.0035
11,HSPPPPFSPFSP,0.667 ± 0.024
12,TKRLLPPRTVAI,0.696 ± 0.066
13,TFSPPLSSPPGP,0.706 ± 0.032
14,FCSLLDSLVGGC,0.745 ± 0.072
15,SFSSLVLSSCFW,0.706 ± 0.026
16,PDPSTRASDRKR,0.648 ± 0.017
17,SKKTSRSKVHTS,0.685 ± 0.069
18,RQKNKIATVVEE,0.664 ± 0.026
19,DMVSLGLAILIT,0.492 ± 0.021
20,RLSCCKCRGGAV,0.6979 ± 0.0042
21,CSRDWRCNVRPV,0.715 ± 0.022
22,PPTTPHPTPTAP,0.689 ± 0.033
23,PLKTDSVPEFTA,0.5811 ± 0.0033
24,LPPVPRAYFSDT,0.714 ± 0.061
25,GVFEGLVYGGLC,0.719 ± 0.012

row,Sequence,protein stability index
1,ESIQAASANDSQ,0.688 ± 0.043
2,AGPPRGVCARWC,0.635 ± 0.011
3,QLENQRGWDRKI,0.656 ± 0.038
4,PPTHLLRTHPPA,0.68368 ± 0.00032
5,LFPCPSMTLPRL,0.706 ± 0.017
6,KWLAQLEHEKYN,0.696 ± 0.025
7,KIDEQNKNKMGM,0.615 ± 0.082
8,VESGVLCPGVGA,0.634 ± 0.02
9,KKNKNKEYCKVK,0.734 ± 0.082
10,RLGGLLCSPLVD,0.705 ± 0.097
11,GMVTCTSPRCHK,0.694 ± 0.016
12,ESIQGRHRMSCL,0.6912 ± 0.006
13,FALRDLHLSCFA,0.577 ± 0.012
14,SPLTCKSLRAQR,0.738 ± 0.022
15,RVDRVFGGFGGS,0.724 ± 0.14
16,PTPLPPRSPPPQ,0.754 ± 0.045
17,DCVACFFFYSGG,0.599 ± 0.0099
18,TLRTPGFSSSLH,0.721 ± 0.025
19,FVGMLSDRAPPP,0.742 ± 0.041
20,PVSPSIHPPSYP,0.759 ± 0.023
21,QESPERRGVPPF,0.674 ± 0.047
22,LPPPPPPLPHPP,0.597 ± 0.083
23,SVSTDTLQVYAI,0.658 ± 0.013
24,VGHRGVQAGGVG,0.618 ± 0.016
25,WRCAGGGGVGGG,0.6956 ± 0.0011

row,Sequence,protein stability index
1,VRMKAAIGNGAE,0.6686 ± 0.0037
2,RKMQKKFESKKM,0.76 ± 0.039
3,RLVLRGRWGIGR,0.618 ± 0.0014
4,NVEPWTRGMGSA,0.659 ± 0.02
5,PLHVSLVRFGCP,0.633 ± 0.032
6,EGGCCRMVGVVK,0.633 ± 0.0024
7,PQPNSSEPTSQK,0.722 ± 0.011
8,ISCFRLGFVRKI,0.535 ± 0.0058
9,VYGVLLGWGCVV,0.577 ± 0.015
10,RLPPPPSPPPPP,0.688 ± 0.016
11,GFLCGFVGVFAD,0.56953 ± 0.00032
12,PNLTYNTLRVVL,0.638 ± 0.04
13,SCYLLDFGCIWV,0.646 ± 0.0083
14,SGFPSCFRPSFY,0.702 ± 0.021
15,LWGRAVYETFQM,0.67 ± 0.063
16,LGAMTQEADGTG,0.639 ± 0.078
17,LPSPRIPLTSQS,0.638 ± 0.031
18,LSMPRVHTRHRP,0.708 ± 0.014
19,FASFLSIPTRFS,0.712 ± 0.02
20,IINKRITKETDE,0.6738 ± 0.0023
21,GGSVGSGSRLVV,0.715 ± 0.038
22,MNERDKGKIKKQ,0.6974 ± 0.0069
23,GVVWMSCGGGWG,0.7543 ± 0.0068
24,LLHHPPPPPSQP,0.769 ± 0.011
25,SRCFGGRCQVIE,0.67 ± 0.02

row,Sequence,protein stability index
1,CLGRLRLMSSCR,0.688 ± 0.044
2,LNPPPPPDPPPT,0.585 ± 0.048
3,PATQTRKETRTP,0.69 ± 0.059
4,CQFHHHPDLTIK,0.609 ± 0.077
5,VLADIGSAGIGR,0.711 ± 0.014
6,LCGVWWGWWVGL,0.576 ± 0.026
7,VGLTGFQHTEWG,0.753 ± 0.027
8,LLDGGGGGVGEG,0.765 ± 0.011
9,FWMIYPHLLTPP,0.629 ± 0.036
10,HPPPETEPIPVA,0.574 ± 0.066
11,SALLLPRARPPD,0.634 ± 0.055
12,INTNASSWRICK,0.7379 ± 0.0049
13,GGDWVGHVLDLW,0.708 ± 0.012
14,ASVTSKSNCSGI,0.663 ± 0.037
15,GVAGWGTVVGAQ,0.712 ± 0.07
16,PLPINAGVRITP,0.671 ± 0.1
17,GVGCVGGGSSCA,0.67 ± 0.1
18,RLTYVGDYELYV,0.686 ± 0.053
19,ESRVTNKQSYQA,0.678 ± 0.03
20,PYPNAQRIEIKF,0.651 ± 0.026
21,PSLVGRVWLEFV,0.691 ± 0.061
